Assay [1] addresses recombinant HIV Gag (Pr55^Gag) (HIV). Put plainly: SPR.
Assay [2] shares this target. Put plainly: charge detection mass spectrometry.

For one substance, fold strengthening of homodimerization (SPR Kd) with Ca^2+ and stoichiometry N results are on record in publication PMC8889552.

“And” between values parts separate entries of the source, which are not always exact repeats. Identical values can stand only once.

Regarding “recombinant HIV Gag (Pr55^Gag) (natural protein)”, the fold strengthening of homodimerization (SPR Kd) with Ca^2+ in assay [1] was less than 7 fold. Further, the stoichiometry N in assay [2] is 125 mers and 220 mers.
